4 substances from patent US5512455A, “Atrial natriuretic peptide receptor protein” (Scios Nova, Inc., priority 1987, dated 1996) can be followed below.

The target of experiment [1] is T1, purified bovine vascular ANP receptor protein (Bos taurus, UniProt P10730).
T1 construct: mature receptor protein is a 496 amino acid polypeptide, expressed as a propeptide; endogenous in cells; host or cells: bovine aortic smooth muscle (BASM) cells, cultured
T1 sequence (P10730 42-537): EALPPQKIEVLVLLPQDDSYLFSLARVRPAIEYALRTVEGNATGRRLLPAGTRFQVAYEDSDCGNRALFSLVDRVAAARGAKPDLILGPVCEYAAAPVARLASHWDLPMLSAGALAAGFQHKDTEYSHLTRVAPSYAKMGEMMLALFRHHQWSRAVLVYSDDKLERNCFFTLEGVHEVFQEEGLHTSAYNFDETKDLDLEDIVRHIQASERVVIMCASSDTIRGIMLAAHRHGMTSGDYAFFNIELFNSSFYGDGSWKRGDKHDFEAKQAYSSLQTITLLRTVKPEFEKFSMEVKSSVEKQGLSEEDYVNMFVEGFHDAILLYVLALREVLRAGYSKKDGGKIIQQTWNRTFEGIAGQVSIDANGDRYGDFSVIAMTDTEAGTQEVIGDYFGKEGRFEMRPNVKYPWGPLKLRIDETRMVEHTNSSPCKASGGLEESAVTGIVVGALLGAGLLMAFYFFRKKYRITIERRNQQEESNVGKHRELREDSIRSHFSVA
The experiment in a line: Competitive binding of 125I-ANP(4-28) against ANP peptides to purified ANP receptor protein. The settings on record: for relative Ki value: purified bovine receptor, competition with 125I-ANP(4-28). On the procedure: To characterize the purified native bovine vascular ANP receptor protein further, its activity as a receptor in vitro was studied. The following ANP peptides, described in Schenk et al. (II), supra, were employed; ANP(4-28), ANP(7-28), and ANP(5-25). Bmax, Ki and Kd were calculated by standard methods. See, e.g., Scatchard (1949) Ann. N.Y. Acad. Sci., pp. 600-672. […] This corresponds to a stoichiometry of ANP to receptor protein of 1:3/subunit, or 0.7:1/holoreceptor.
An affinity matrix was made by coupling 40 mg human ANP(4-28) to 4 ml of Affi-gel 10 (Bio-Rad) as described by the manufacturer. Solubilized ANP receptor was adjusted to 10 mM CaCl2 and MgCl2 and filtered through […] (type GE, Millipore). The filtrate was chromatographed on the ANP-agarose column at a flow rate of 0.5 ml/min at 21° C. The column was washed with binding buffer (100 mM Tris HCl, pH 7.50; 100 mM NaCl; 4 mg/ml C12 E8; 10 mM CaCl2; and 10 mM MgCl2) until the effluent reached A280 =0.000. Then 6.0 ml of elution buffer (10 mM Na acetate, pH 5.00:100 mM NaCl; 4 mg/ml C12 E8; 10 mM CaCl2; 10 mM MgCl2) was added and the eluent was placed on ice and immediately adjusted to 37% (v/v) acetone. The solution was centrifuged at 4,000×g for 10 min at 4° C. and thoroughly aspirated. The pellet was resuspended in 3.0 ml of binding buffer and analyzed for purity, receptor binding activity, and amino acid sequence.
The tested ANP peptide included hANP(4-28), hANP(7-28) and atriopeptin I. Gamma-melanocyte stimulating hormone ([…]) was employed as a negative control. […] This corresponds to a stoichiometry of ANP to receptor protein of 1:3 kd subunit, or 0.7:1.0/holoreceptor.
Additional studies were conducted with ANP peptides.

Experiment [2] addresses T2, ANP receptor (pANPRc-1/4) expressed in Xenopus oocytes (Bos taurus, UniProt P10730).
T2 construct: contains a 2290 base pair DNA insert which includes the entire open reading frame; expressed in transfected cells; host or cells: Xenopus oocytes injected with synthetic RNA from pANPRc-1/4; solubilized crude membranes
T2 sequence (P10730 42-537): T1 sequence (P10730 42-537)
The experiment in a line: ANP binding to recombinant ANP receptor (pANPRc-1/4) in solubilized membranes of mRNA-injected Xenopus oocytes. Set-up: species or system bovine. How it is done: The receptor coding sequence from pANPRc-1/4 was cloned into pGEM1 (ProMega, Madison, Wis.) and RNA prepared according to the supplier's instructions. Oocyte preparation and injection were performed essentially as described, Gurdon et al. (1983) Meth. Enzymol. 101:370-386. Typically, each oocyte was injected with 50 nl 50 ng synthetic RNA followed by incubation in modified Barth's saline at 21° C. for 48 hr. Crude membranes were prepared and solubilized in receptor binding buffer (2 mg/ml C12 E8, 100 mM NaCl, 10 mM MgCl2, 10 mM CaCl2 and 100 mM Tris:HCl; pH 7.5). Binding was measured after incubating 0.5 ml of membrane suspension containing 10 μg protein with 2×10^5 cpm of ^125 I! […] (1×10^3 cpm/fmol) and the indicated concentration of unlabeled ANP analog for 30 min at 21° C. Reactions were terminated and free peptide separated from bound by precipitation with acetone (40% v/v final). Counts bound in the absence of unlabeled ligand were 2048±374 cpm while nonspecific binding (counts bound in the presence of 20 nM rANP) were 592±89 cpm.
Only low level, nonspecific binding was detected in membranes of uninfected, or mock injected eggs. […] Both […] and the truncated analog […] for binding. The Ii apparent obtained from the experiment was 0.27 nM for both analogs.

Ends that are not written are not given here.

As for “ANP(4-28): ANP peptide described in Schenk et al. (II) (RSSCFGGRMDRIGAQSGLGCNSFRY; ends and bridges not checked; cysteine pairing not given here; UniProt P01160 127-151, looked up, fragment)”, the “Bmax for receptor binding” value in experiment [1] (computer analysis of binding data, b45 adds '75% receptor activity') was determined as 5.7 nmol/mg protein. Further, in experiment [1] (computer analysis of binding data, purified receptor), the affinity, expressed as Kd, was 0.3 nM. The “relative Ki value” in experiment [1] is 0.3 nM.

Turning to “ANP(5-25): ANP peptide described in Schenk et al. (II) (SSCFGGRMDRIGAQSGLGCNS; ends and bridges not checked; cysteine pairing not given here; UniProt P01160 128-148, looked up, fragment)”, the “relative Ki value” in experiment [1] is 1.12 nM.

With “ANP(7-28): ANP peptide described in Schenk et al. (II) (CFGGRMDRIGAQSGLGCNSFRY; ends and bridges not checked; cysteine pairing not given here; UniProt P01160 130-151, looked up, fragment)”, the “relative Ki value” in experiment [1] worked out at 1.1 nM.

For the substance “Bombesin: bombesin, an unrelated tetradecapeptide (Peninsula Labs)”, the “effect on binding of radiolabeled ANP” value in experiment [2] (even at 100 μM) is recorded as “no effect on binding”. Besides, the competition for binding entry in experiment [2] (solubilized oocyte membranes) is listed as “did not compete for binding”.
